Results: PMC3648639
pKd: −log10 of the molar value.

Target: untagged RNF8 FHA domain (UniProt O76064)
Assay: ITC

UniProt O76064, sequence (O76064 38-92): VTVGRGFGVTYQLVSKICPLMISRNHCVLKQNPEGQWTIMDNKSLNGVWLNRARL

With ICP0 pT67 peptide the pKd was 6.08.
